From the nanobody polyreactivity screen of Harvey et al. (2022)

Test: yeast display, Sf9 membrane polyspecificity reagent, FACS + sequencing; frameworks hold sequencing errors
How it was run: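 Synthetic nanobody libraries on Saccharomyces cerevisiae BJ5465 were galactose-induced for 36–48 hours, stained 1 hour at 4 °C with 10% biotinylated, detergent-solubilized Sf9 membrane reagent and enriched on streptavidin microbeads. FACS then separated cells into low and high (top ~1%) gates by anti-HA (expression) and streptavidin (reagent binding) fluorescence. Genes were colony-PCR amplified, MiSeq 2 × 250 sequenced and CDR-length filtered. A clone's polyreactivity label is that of its gate of origin.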

Row | Sequence | polyreactivity (PSR sort gate)
1 | QVQLVESGGGLVQAGGSLRLSCAASGTFQVNAMGWYIQAPGKERELVAAINSNGGSTYYADSVKGRFTISRDNAKNTVYLQMNSLKPEDTAVYYCAAVYQRRRSYYWGQGTQVTVSS | high polyreactivity
2 | QVQLVESGGGLVQAGGSLRLSCAASGSILYYAMGWYRQAPGKERELVATITRGGSTYYADSVKGRFTISRDNAKNTVYLQMNSLKPDDTAVYYCAARRAVRVGYYWHDISSYDYWGQGTQVTVPS | low polyreactivity
3 | QVQLVESGGGLVQAGGSLRLSCAASGSIFGLYAMGWYRQAPGKETELVAAINWNGGDTYYADSVKGRFTISRDNAKNPVYLQMNSLKPEDTAVYYCAAEQYRYGIRRRHYDYWGQGTQVTVSS | low polyreactivity
4 | QVQLVESGGGLVQAGGSLRLSCAASGSTFYNYAMGWCRLAPGKERELVAATSSGGSTNYADSVKGRFTISRDNAKNTVFLQMISLKPEDNAVYYCARRHRVYPSRIGHDYWGQGTQVTVSS | low polyreactivity
5 | QVQLVESGGGLVQAGGSLRLSCAASGSIFYSYAMGWYRQAPGKERELVAGIRSDGNTNYADSVKGRFTISRDNAKNTVYLQMNSLKPEDTAVYYCARLRYFLLNGSLRYGTSDRDYWGQGTQVTVSS | high polyreactivity
6 | QVQLVESGGGLVQAGGSLRLSCAASGSTFRIYAMGWYRQAPGKERELVAAISSGGRTNYADSVKGRFTISRDNAKNNVYLQMNSLKPEDTAVYYCNAVFLPTYHFDYWGQGTQVTVSS | high polyreactivity
7 | QVQLVESGGGLVQAGGSLRLSCAASGSIFVLYAMGWYRQAPGKERELVAAISRGVGGTNYADSVKGRFTISRDNAKNTVYLQMNSLKPEDTAVYYCAAQTLRWSHYYYWGQGTQVTVSS | high polyreactivity
8 | QVQLVESGGGLVQAGGSLRLSCAASGIIFSWYAMGWYRQAPGKERELVATISSGAHTYYADSVKGRFTISRDNAKNTVYLQMNSLKPEDTAVYYCATTSYGYWFGYIPEVDYWGQGTQVTVSS | low polyreactivity
9 | QVQLVESGGGLVQAGGSLRLSCASSGFTFSVYAMGWYRQAPGKERELVAAITWRGGSTYYADSVKGRFTISRDNAKNTVYLQMNSLKPEDTAVYYCAVLYPKYGKRYGYWGQGTQVTVSS | high polyreactivity
10 | QVQLVESGGGLVHAGGSLRLSCAASGSIFRRNAMGMSRQAPGKERELVASITSGASTYYADSVKGRFTISRDNAKNTVYIQMNSLKPEDTAVYYCAADIFVTAFASPMDYWGQGTQVTVSS | low polyreactivity
11 | QVQLVESGGGLVQAGGSLRLSCAASGSTFYTNAMGWYRQAPGKERELVAAISASVGSTYYADSVKGRFTISRDNAKNTVYLQMNSLKPEDTAVYYCAAQYTYLLFASLPDYDYWGQGTQVTVSS | low polyreactivity
12 | QVQLVESGGGLVQAGGSLRLRCAASGGIFTNNAKGWYRQAPGKERELVAAITGSGASTYYADSVKARFTISRDNAKNSVYLHLNSLKPEDTAVYYCNTDSPYGWEGEFDYWGLGTQVTVSS | high polyreactivity
13 | QVQLVESGGGLVQAGGSLRLSCAASGLIFKFYPMGWYRQAPGKERELVASIRGSGDNTYYADSVKGRFTISRDNAKNTVYLQMNSLKPEDTAVYYCNARASYSWHGIRGKYDYWGQGTQVTVSS | high polyreactivity
14 | QVQLVESGGGLVQAGGSLRLSCAASGTTFYGYVMGWYRQAPGKQREWVAAISSSGGRTYYADSVKGRFTISRDNAKNTVYLQMNSLNPEDTAVYYCNTVQRYSTHYDYWGQGTQVTVSS | high polyreactivity
15 | QVQLVESGGGLVQAGGSLRLSCAASGFTFSTYAMGWDRQAPGKERELVAAISRSGGSTYYADSVKGRFTISRDNAKNTVYLQMNSLKPEDTAVYYCAVRPFRSAGGSVTRGAYYYWGQGTQVTVSS | high polyreactivity
16 | QVQLVESGGGLVQAGGSLRLSCAASGITFPGNAMGWYRQAPGKERELVAGISDGDSTNYADSVKGRFTISRDNAKNTVYLQMNSLKPEDTAVYYCNAQGTTETSGGGFFRGMDYWGQGTQVTVSS | low polyreactivity

Row | Sequence | polyreactivity (PSR sort gate)
17 | QVQLVESGGGLVQAGGSLRLSCAASGSTFWPYAMGWFRQAPGTERELVAAITWSGGRTYYADSVKGRFTLSRDNAKNTVYLQMNSLKPEDTAVYYCAAYYRQGIAPNGFDYWGQGTQVTVSS | high polyreactivity
18 | QVQLVESGGGLVQAGGSLRLSCAASGRIFKRYAMGWYRQAPGKERELVAAITRSGGSMYYADSVKGRFTISRDNAKNTVYLQMNSLKPEDTAVYYCNKVYGPHPERAVYYEGDYWGQGTQVTVSS | high polyreactivity
19 | QVQLVESGGGLVQAGGSLRLSCAASGIIFKYNVMGWYRQAPGKERELVAAITDSGTSTFYADSVKGRFTISRDNAKNTVYLQMNSLKPEDTAVYYCAADEFSVFTIETYGYDYWGQGTQVTVSS | low polyreactivity
20 | QFQLLESGGGLVQAGGSLRLSCAASGFISDVYAMGWYRQAPGKERELDAVITWRGSTYYADSVKGSFTISRDNAKNTVYLQMNSLKPEDTALYYCAAESQGDWAFDYWGQGTQVTVSS | low polyreactivity
21 | QVQLVESGGGLVQAGGSLRLSCAASGRILQWYTMGWYRQAPGKERELVAAISGGGGRTYYADSVKGRFTNSRDIAKNTVYLQMNSLKPEDTAVYYCAKRGTGVYRVDYGYWGQGTQVTVSS | high polyreactivity
22 | QVQLVESGGGLVQAGGSLRLICAASGSTIGGYVMGWYRQAPGKERELVAAISRSGASTYYADSVKGRFTISRDNAKNTVYLQMNSLKQEDTAVYYCAAYQARGMDYWGQGTQVTVSS | high polyreactivity
23 | QVQLVESGGGLVQAGGSLRLSCAASGRIFDPYAMGWYRQAPGKERELVASISWSGGRTYYADSVKGRFTISRDNAKNTVYLQMNSLKPEDTAVYYCARDYGQYGWYRYGRTYDHWGQGTQVTVSS | high polyreactivity
24 | QDQLVESGGGLVQAGGSLRLSCAASGIIFAKYAMGWSRQAPGNERELVAAINARGGSTYYADSVKGRFTISRDNAMNTVYLQMNSLKPEDTAVYYCAAERRSRFGNGVTYDYWGQGTQVTVSS | high polyreactivity
25 | QVQLVESGGGLVQAGGSLRLSCAASGFTFARYAMGWYRQAPGKERELVAAISISGGRTYYADSVKGRFSISRDNAKNTVYLQMNSLKPEDTAVYYCNKGHVPSYDYNYWGQGTQVTVSW | high polyreactivity
26 | QVQLGESGGGLVQAGGSLRLSCAASGGIFGKYAMGWYRQAPGKERELVAAISGGSRTNYADSVKGRFTISRDNAKNTVYLQMNSLKPEDTAVYYCAARYAYSAQRLYYWGQGTQVTVSS | high polyreactivity
27 | QVQLVESGGGLVQAGGSLRLSCAASGRILTKYAMGWYRQAPGKERELVAAISDSGTGTYYADSVKGRFTISRDNAKNTVYLQMNSLKPEDTAVYYCHAQTRRTRTYHGHKYGYWGQGTQVTVSW | high polyreactivity
28 | QVQLVESGGGLVQAGGSLRLSCAASGSIFFGNAMGWYRQAPGKERELVAAIDSGGGTNYADSVKGRFTISRDNAKNTVYLQMNSLKPEDTAVYYCAREQGVNRNHDYWGQGTQVTVSS | low polyreactivity
29 | QVQLVESGGGVVQAGGSLRLSCAASARTFYRNAMGWYRQAPGKERELVAAITGSGGSTYYADSVKGRFTISRDNAKNTVYLQMNSLKPEDTAVSYCAAGTRIYNSWIRFDYWGQGTQVTVSS | high polyreactivity
30 | QVQLVESGGGLVQAGGSLRLSCAASGRIFTYYTMGWYRQAPGKERELVAANDSGSSTYYADSVKGRFTISRDNAKNTVYLQMNSLKPEDTAVYYCAADGVRSLVRRGYWFDYWGQGTQVTVSS | low polyreactivity
31 | QDQLVESGGGLVQAGGSLRLSCAASGFILKYYAMGWYRQAPGKEREFVAAITVSGGSTYYADSVKGRFTISRDNAKNTVYLQMNSLKPVDTAVYYCNADYPRGGAGLPDYWGQGTQVTVSS | low polyreactivity
